# Data published in patent publication US5686592, “High-affinity oligonucleotide ligands to immunoglobulin E (IgE)” (NeXstar Pharmaceuticals, Inc.).
# B1: D11.0 (ssDNA)
# DNA: CTACCTACGATCTGACTAGCACCGGAGTACTTCATCCGTCCCTTCTAGTGGGTACCCGTAGCTTACTCTCATGTAGTTCC
# B2: D31.0 (ssDNA)
# DNA: CTACCTACGATCTGACTAGCACGGGTGAGTTGATCCGTCACTCTTAGTGGTGAACCTTGTGCTTACTCTCATGTAGTTCC
# B3: D2.0 (ssDNA)
# DNA: CTACCTACGATCTGACTAGCGGCCGGAGCTTTATCCGTTACTCTCAGTGGGTGACTGTCGCTTACTCTCATGTAGTTCC
# Assays:
# Settings in all cases: tags: Athens Research Technology; chain copies: 2; label: 5' 32P
# human IgE [1] = target: T1, human IgE (Homo sapiens, UniProt P01854-1 P01854-1:1-428); assay: filter; modified PBS, 1 mM Mg2+, 37 C; D11.0 taken as clone D011
# T1 sequence (P01854 other isoform, or with tags, fused parts or gaps): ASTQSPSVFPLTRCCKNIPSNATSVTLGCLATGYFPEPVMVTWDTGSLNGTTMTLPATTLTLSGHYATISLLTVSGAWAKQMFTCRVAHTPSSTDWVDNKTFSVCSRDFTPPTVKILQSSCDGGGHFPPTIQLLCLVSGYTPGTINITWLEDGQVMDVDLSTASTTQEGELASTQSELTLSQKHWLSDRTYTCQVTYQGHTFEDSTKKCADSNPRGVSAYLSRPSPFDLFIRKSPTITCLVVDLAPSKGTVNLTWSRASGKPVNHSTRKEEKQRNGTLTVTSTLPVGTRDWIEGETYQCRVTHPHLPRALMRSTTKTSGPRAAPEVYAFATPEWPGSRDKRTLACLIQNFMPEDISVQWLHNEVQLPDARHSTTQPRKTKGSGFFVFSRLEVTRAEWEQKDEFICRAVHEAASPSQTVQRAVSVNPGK
# human IgE [2] = target: T1, human IgE; assay: filter; modified PBS, 1 mM Mg2+, 37 C; D31.0 taken as clone D031
# human IgE [3] = target: T1, human IgE; assay: filter; modified PBS, 1 mM Mg2+, 37 C; D2.0 taken as clone D002
# Protocol: Affinities of representative DNA ligands for human IgE were determined by nitrocellulose filter binding experiments and the K_Ds are listed in Table 7. […] Individual clones tested from this pool have affinities in the same range. The affinities were not expected to vary widely since the enriched DNA pool is very homogenous. Ligand D17.0 was picked for truncation experiments. […] However, the affinity could be restored to the level of the full-length ligand by the addition of a 4 basepair stem resulting in the 37 base truncate D17.4. It is possible that the stem in D17.1 is not stable enough to prevent the formation of an alternative secondary structure and that the additional base pair in D17.4 lock in the conformation necessary for IgE binding.
binder,measurement,setting,value
B1,Kd,human IgE [1],8 nM
B2,Kd,human IgE [2],22 nM
B3,Kd,human IgE [3],6 nM
